Patent US20220119490A1 (Genentech, published 2022)

Experiments:
[1] = target: T1, PTPRD P249L variant extracellular domain (human, UniProt P23468 21-1265); assay: extracellular interaction screen: pentameric PTPRD variant ECD on ECD-Fc prey (FIG. 5L)
T1 construct: extracellular domain; also called IG3 mutant
T1 sequence (looked up): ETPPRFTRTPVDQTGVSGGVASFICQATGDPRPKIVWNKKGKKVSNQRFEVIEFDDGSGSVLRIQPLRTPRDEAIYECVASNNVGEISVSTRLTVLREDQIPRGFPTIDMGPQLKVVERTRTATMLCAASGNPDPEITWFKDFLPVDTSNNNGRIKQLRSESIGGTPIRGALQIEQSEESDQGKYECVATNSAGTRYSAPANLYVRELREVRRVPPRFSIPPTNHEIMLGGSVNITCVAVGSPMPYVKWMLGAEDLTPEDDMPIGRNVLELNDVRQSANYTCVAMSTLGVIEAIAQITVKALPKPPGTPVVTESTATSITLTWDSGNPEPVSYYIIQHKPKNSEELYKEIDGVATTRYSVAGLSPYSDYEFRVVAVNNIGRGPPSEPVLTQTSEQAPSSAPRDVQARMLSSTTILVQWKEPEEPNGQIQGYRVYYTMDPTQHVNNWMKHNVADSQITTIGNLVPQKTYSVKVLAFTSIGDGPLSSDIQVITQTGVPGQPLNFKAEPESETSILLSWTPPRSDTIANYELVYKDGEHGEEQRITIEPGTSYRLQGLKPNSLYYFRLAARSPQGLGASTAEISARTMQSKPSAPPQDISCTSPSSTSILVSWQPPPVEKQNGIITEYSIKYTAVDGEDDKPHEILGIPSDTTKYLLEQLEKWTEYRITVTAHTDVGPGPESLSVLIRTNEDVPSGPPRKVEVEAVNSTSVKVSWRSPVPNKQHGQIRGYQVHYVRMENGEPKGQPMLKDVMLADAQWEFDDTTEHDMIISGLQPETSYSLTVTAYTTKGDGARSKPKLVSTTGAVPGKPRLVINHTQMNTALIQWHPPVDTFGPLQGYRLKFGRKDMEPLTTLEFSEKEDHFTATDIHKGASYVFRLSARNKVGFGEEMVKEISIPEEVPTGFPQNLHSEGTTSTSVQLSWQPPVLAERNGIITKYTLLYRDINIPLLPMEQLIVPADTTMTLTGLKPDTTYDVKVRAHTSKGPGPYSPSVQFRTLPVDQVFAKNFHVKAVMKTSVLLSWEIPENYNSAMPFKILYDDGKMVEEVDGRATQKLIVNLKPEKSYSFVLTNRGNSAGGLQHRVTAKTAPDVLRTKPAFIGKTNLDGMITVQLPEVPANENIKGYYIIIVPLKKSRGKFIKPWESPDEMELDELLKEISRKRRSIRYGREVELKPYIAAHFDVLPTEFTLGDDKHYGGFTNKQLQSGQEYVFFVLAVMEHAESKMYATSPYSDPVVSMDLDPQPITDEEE

[2] = target: T2, PTPRD E406K variant extracellular domain (human, UniProt P23468 21-1265); assay: as above
T2 construct: extracellular domain; also called FN1 mutant
T2 sequence (looked up): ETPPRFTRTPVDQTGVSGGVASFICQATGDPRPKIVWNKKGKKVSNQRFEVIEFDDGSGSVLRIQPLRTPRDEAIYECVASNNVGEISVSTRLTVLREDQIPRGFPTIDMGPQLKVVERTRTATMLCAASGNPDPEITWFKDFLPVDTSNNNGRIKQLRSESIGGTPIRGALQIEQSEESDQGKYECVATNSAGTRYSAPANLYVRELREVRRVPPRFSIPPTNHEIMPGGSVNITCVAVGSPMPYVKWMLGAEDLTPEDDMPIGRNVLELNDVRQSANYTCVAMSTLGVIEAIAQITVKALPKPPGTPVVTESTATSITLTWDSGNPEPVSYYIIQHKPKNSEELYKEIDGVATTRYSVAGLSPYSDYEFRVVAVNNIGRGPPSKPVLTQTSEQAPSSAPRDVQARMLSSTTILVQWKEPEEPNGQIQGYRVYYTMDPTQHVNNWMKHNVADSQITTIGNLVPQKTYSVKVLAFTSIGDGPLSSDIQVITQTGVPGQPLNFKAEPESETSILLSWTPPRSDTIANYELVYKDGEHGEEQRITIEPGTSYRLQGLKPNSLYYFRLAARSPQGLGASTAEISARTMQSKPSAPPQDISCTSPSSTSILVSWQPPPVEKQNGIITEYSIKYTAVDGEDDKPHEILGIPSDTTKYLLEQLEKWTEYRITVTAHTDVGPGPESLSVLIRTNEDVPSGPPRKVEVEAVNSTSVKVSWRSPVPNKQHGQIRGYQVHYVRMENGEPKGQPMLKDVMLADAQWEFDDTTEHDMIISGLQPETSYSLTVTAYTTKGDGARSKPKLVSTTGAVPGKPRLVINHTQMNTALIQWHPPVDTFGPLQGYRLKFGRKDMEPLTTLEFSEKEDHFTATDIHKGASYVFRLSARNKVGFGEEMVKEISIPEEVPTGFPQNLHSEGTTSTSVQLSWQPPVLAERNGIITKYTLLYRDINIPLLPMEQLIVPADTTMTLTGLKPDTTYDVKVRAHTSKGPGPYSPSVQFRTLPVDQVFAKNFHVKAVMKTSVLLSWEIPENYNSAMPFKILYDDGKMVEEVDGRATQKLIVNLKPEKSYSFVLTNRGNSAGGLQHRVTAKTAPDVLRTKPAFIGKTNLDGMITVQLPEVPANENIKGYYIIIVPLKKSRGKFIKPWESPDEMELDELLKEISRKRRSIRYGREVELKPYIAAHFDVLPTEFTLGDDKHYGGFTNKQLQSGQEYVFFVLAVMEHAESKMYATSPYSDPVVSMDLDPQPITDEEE

B1: LRRC4B extracellular domain (receptor, human, UniProt Q9NT99 36-576, looked up)
chain: AGGGGVAVTSAAGGGSPPATSCPVACSCSNQASRVICTRRDLAEVPASIPVNTRYLNLQENGIQVIRTDTFKHLRHLEILQLSKNLVRKIEVGAFNGLPSLNTLELFDNRLTTVPTQAFEYLSKLRELWLRNNPIESIPSYAFNRVPSLRRLDLGELKRLEYISEAAFEGLVNLRYLNLGMCNLKDIPNLTALVRLEELELSGNRLDLIRPGSFQGLTSLRKLWLMHAQVATIERNAFDDLKSLEELNLSHNNLMSLPHDLFTPLHRLERVHLNHNPWHCNCDVLWLSWWLKETVPSNTTCCARCHAPAGLKGRYIGELDQSHFTCYAPVIVEPPTDLNVTEGMAAELKCRTGTSMTSVNWLTPNGTLMTHGSYRVRISVLHDGTLNFTNVTVQDTGQYTCMVTNSAGNTTASATLNVSAVDPVAAGGTGSGGGGPGGSGGVGGGSGGYTYFTTVTVETLETQPGEEALQPRGTEKEPPGPTTDGVWGGGRPGDAAGPASSSTTAPAPRSSRPTEKAFTVPITDVTENALKDLDDVMKTTK
notes: extracellular domain; ECD-Fc prey; also called NGL-3; netrin-G ligand-3
- binding result [1]: no binding
- binding result [2]: no binding
